What was measured:
Experiment in all cases: cell-based or functional assay
[1] = target: HIV-1 Env of pseudovirus Q461.e2 (HIV-1)
[2] = target: HIV-1 Env of pseudovirus BJOX015000.11.5 (HIV-1)
[3] = target: HIV-1 Env of pseudovirus AC10.0.29 (HIV-1)
[4] = target: HIV-1 Env of pseudovirus Ce2060_G9 (HIV-1)
[5] = target: HIV-1 Env of pseudovirus Ce1172_H1 (HIV-1)
[6] = target: HIV-1 Env of pseudovirus 6244_13_B5_4576 (HIV-1)
[7] = target: HIV-1 Env of pseudovirus Q259.d2.17 (HIV-1)
[8] = target: HIV-1 Env of pseudovirus PVO.4 (HIV-1)
[9] = target: HIV-1 Env of pseudovirus TRO.11 (HIV-1)
[10] = target: HIV-1 Env of pseudovirus 3817.v2.c59 (HIV-1)
[11] = target: HIV-1 Env of pseudovirus WITO4160.33 (HIV-1)
[12] = target: HIV-1 Env of pseudovirus SC422661.8 (HIV-1)
[13] = target: HIV-1 Env of pseudovirus CNE52 (HIV-1)
[14] = target: HIV-1 Env of pseudovirus CNE30 (HIV-1)
[15] = target: HIV-1 Env of pseudovirus ZM233M.PB6 (HIV-1)
[16] = target: HIV-1 Env of pseudovirus ZM53M.PB12 (HIV-1)
[17] = target: HIV-1 Env of pseudovirus SC05_8C11_2344 (HIV-1)
[18] = target: HIV-1 Env of pseudovirus 235-47 (HIV-1)
[19] = target: HIV-1 Env of pseudovirus 928-28 (HIV-1)
[20] = target: HIV-1 Env of pseudovirus CNE20 (HIV-1)
[21] = target: HIV-1 Env of pseudovirus CAAN5342.A2 (HIV-1)
[22] = target: HIV-1 Env of pseudovirus 191955_A11 (HIV-1)
[23] = target: HIV-1 Env of pseudovirus ZM135M.PL10a (HIV-1)
[24] = target: HIV-1 Env of pseudovirus CNE17 (HIV-1)
[25] = target: HIV-1 Env of pseudovirus Q842.d12 (HIV-1)
[26] = target: HIV-1 Env of pseudovirus 6480.v4.c25 (HIV-1)
[27] = target: HIV-1 Env of pseudovirus CNE19 (HIV-1)
[28] = target: HIV-1 Env of pseudovirus MS208.A1 (HIV-1)
[29] = target: HIV-1 Env of pseudovirus CAP45.2.00.G3 (HIV-1)
[30] = target: HIV-1 Env of pseudovirus 6811.v7.c18 (HIV-1)
[31] = target: HIV-1 Env of pseudovirus Du422.1 (HIV-1)
[32] = target: HIV-1 Env of pseudovirus 62357_14_D3_4589 (HIV-1)
[33] = target: HIV-1 Env of pseudovirus ZM247v1(Rev-) (HIV-1)
[34] = target: HIV-1 Env of pseudovirus Ce2010_F5 (HIV-1)
[35] = target: HIV-1 Env of pseudovirus X1632_S2_B10 (HIV-1)
[36] = target: HIV-1 Env of pseudovirus ZM197M.PB7 (HIV-1)
[37] = target: HIV-1 Env of pseudovirus CNE53 (HIV-1)
[38] = target: HIV-1 Env of pseudovirus 6535.3 (HIV-1)

Substance: N49P7 (antibody)
- IC50 [1]: 0.261 µg/mL
- IC80 [1]: 0.922 µg/mL
- MPI [1]: 100
- IC50 [2]: 0.036 µg/mL
- IC80 [2]: 0.157 µg/mL
- MPI [2]: 100
- IC50 [3]: 5.03 µg/mL
- IC80 [3]: 36.7 µg/mL
- MPI [3]: 89
- IC50 [4]: 0.661 µg/mL
- IC80 [4]: 2.55 µg/mL
- MPI [4]: 100
- IC50 [5]: 8.5 µg/mL
- IC80 [5]: 37.5 µg/mL
- MPI [5]: 92
- IC50 [6]: 0.111 µg/mL
- IC80 [6]: 0.386 µg/mL
- MPI [6]: 100
- IC50 [7]: 0.332 µg/mL
- IC80 [7]: 2.47 µg/mL
- MPI [7]: 98
- IC50 [8]: 0.107 µg/mL
- IC80 [8]: 0.365 µg/mL
- MPI [8]: 100
- IC50 [9]: 0.044 µg/mL
- IC80 [9]: 0.16 µg/mL
- MPI [9]: 100
- IC50 (neutralisation, TZM.bl cells) [10]: 0.716 µg/mL
- IC80 (neutralisation, TZM.bl cells) [10]: 3.73 µg/mL
- MPI [10]: 99
- IC50 [11]: 0.084 µg/mL
- IC80 [11]: 0.248 µg/mL
- MPI [11]: 100
- IC50 [12]: 0.114 µg/mL
- IC80 [12]: 0.32 µg/mL
- MPI [12]: 100
- IC50 [13]: 0.008 µg/mL
- IC80 [13]: 0.023 µg/mL
- MPI [13]: 100
- IC50 [14]: 0.18 µg/mL
- IC80 [14]: 0.609 µg/mL
- MPI [14]: 100
- IC50 [15]: 0.226 µg/mL
- IC80 [15]: 0.774 µg/mL
- MPI [15]: 100
- IC50 [16]: 0.251 µg/mL
- IC80 [16]: 0.8 µg/mL
- MPI [16]: 100
- IC50 [17]: 0.164 µg/mL
- IC80 [17]: 0.403 µg/mL
- MPI [17]: 100
- IC50 [18]: 0.045 µg/mL
- IC80 [18]: 0.3 µg/mL
- MPI [18]: 99
- IC50 [19]: 0.167 µg/mL
- IC80 [19]: 0.579 µg/mL
- MPI [19]: 100
- IC50 [20]: 0.028 µg/mL
- IC80 [20]: 0.1 µg/mL
- MPI [20]: 100
- IC50 [21]: 0.409 µg/mL
- IC80 [21]: 1.21 µg/mL
- MPI [21]: 100
- IC50 [22]: 1.81 µg/mL
- IC80 [22]: 8.87 µg/mL
- MPI [22]: 99
- IC50 [23]: 0.2 µg/mL
- IC80 [23]: 0.96 µg/mL
- MPI [23]: 100
- IC50 [24]: 0.126 µg/mL
- IC80 [24]: 0.46 µg/mL
- MPI [24]: 100
- IC50 [25]: 0.021 µg/mL
- IC80 [25]: 0.06 µg/mL
- MPI [25]: 100
- IC50 (neutralisation, TZM.bl cells) [26]: 0.031 µg/mL
- IC80 (neutralisation, TZM.bl cells) [26]: 0.113 µg/mL
- MPI [26]: 100
- IC50 [27]: 0.009 µg/mL
- IC80 [27]: 0.041 µg/mL
- MPI [27]: 100
- IC50 [28]: 0.12 µg/mL
- IC80 [28]: 0.479 µg/mL
- MPI [28]: 100
- IC50 [29]: 0.06 µg/mL
- IC80 [29]: 0.29 µg/mL
- MPI [29]: 100
- IC50 (neutralisation, TZM.bl cells) [30]: 0.229 µg/mL
- IC80 (neutralisation, TZM.bl cells) [30]: 0.992 µg/mL
- MPI [30]: 100
- IC50 [31]: 4.5 µg/mL
- IC80 [31]: 19.5 µg/mL
- MPI [31]: 93
- IC50 [32]: 0.025 µg/mL
- IC80 [32]: 0.102 µg/mL
- MPI [32]: 100
- IC50 [33]: 0.062 µg/mL
- IC80 [33]: 0.214 µg/mL
- MPI [33]: 100
- IC50 [34]: 0.13 µg/mL
- IC80 [34]: 0.547 µg/mL
- MPI [34]: 100
- IC50 (neutralisation, TZM.bl cells) [35]: 12 µg/mL
- IC80 (neutralisation, TZM.bl cells) [35]: 40.4 µg/mL
- MPI [35]: 85
- IC50 [36]: 0.109 µg/mL
- IC80 [36]: 0.347 µg/mL
- MPI [36]: 100
- IC50 [37]: 0.035 µg/mL
- IC80 [37]: 0.124 µg/mL
- MPI [37]: 100
- IC50 [38]: 0.186 µg/mL
- IC80 [38]: 0.598 µg/mL
- MPI [38]: 100

Substance: N49P7.1 (antibody)
- IC50 [1]: 0.329 µg/mL
- IC80 [1]: 1.14 µg/mL
- MPI [1]: 100
- IC50 [2]: 0.111 µg/mL
- IC80 [2]: 0.487 µg/mL
- MPI [2]: 100
- IC50 [3]: 5.31 µg/mL
- IC80 [3]: 46.8 µg/mL
- MPI [3]: 85
- IC50 [4]: 0.473 µg/mL
- IC80 [4]: 2.41 µg/mL
- MPI [4]: 100
- IC50 [5]: 17.1 µg/mL
- IC80 [5]: > 50 µg/mL
- MPI [5]: 78
- IC50 [6]: 0.184 µg/mL
- IC80 [6]: 0.493 µg/mL
- MPI [6]: 100
- IC50 [7]: 0.505 µg/mL
- IC80 [7]: 4.23 µg/mL
- MPI [7]: 97
- IC50 [8]: 0.124 µg/mL
- IC80 [8]: 0.421 µg/mL
- MPI [8]: 100
- IC50 [9]: 0.055 µg/mL
- IC80 [9]: 0.191 µg/mL
- MPI [9]: 100
- IC50 (neutralisation, TZM.bl cells) [10]: 1.48 µg/mL
- IC80 (neutralisation, TZM.bl cells) [10]: 8.36 µg/mL
- MPI [10]: 97
- IC50 [11]: 0.121 µg/mL
- IC80 [11]: 0.326 µg/mL
- MPI [11]: 100
- IC50 [12]: 0.125 µg/mL
- IC80 [12]: 0.417 µg/mL
- MPI [12]: 100
- IC50 [13]: 0.021 µg/mL
- IC80 [13]: 0.058 µg/mL
- MPI [13]: 100
- IC50 [14]: 0.307 µg/mL
- IC80 [14]: 1.01 µg/mL
- MPI [14]: 100
- IC50 [15]: 0.355 µg/mL
- IC80 [15]: 1.25 µg/mL
- MPI [15]: 100
- IC50 [16]: 0.287 µg/mL
- IC80 [16]: 1 µg/mL
- MPI [16]: 100
- IC50 [17]: 0.189 µg/mL
- IC80 [17]: 0.688 µg/mL
- MPI [17]: 100
- IC50 [18]: 0.078 µg/mL
- IC80 [18]: 0.419 µg/mL
- MPI [18]: 97
- IC50 [19]: 0.23 µg/mL
- IC80 [19]: 0.775 µg/mL
- MPI [19]: 100
- IC50 [20]: 0.079 µg/mL
- IC80 [20]: 0.224 µg/mL
- MPI [20]: 100
- IC50 [21]: 0.55 µg/mL
- IC80 [21]: 1.59 µg/mL
- MPI [21]: 100
- IC50 [22]: 1.99 µg/mL
- IC80 [22]: 10.1 µg/mL
- MPI [22]: 98
- IC50 [23]: 0.314 µg/mL
- IC80 [23]: 1.11 µg/mL
- MPI [23]: 99
- IC50 [24]: 0.254 µg/mL
- IC80 [24]: 0.86 µg/mL
- MPI [24]: 100
- IC50 [25]: 0.028 µg/mL
- IC80 [25]: 0.08 µg/mL
- MPI [25]: 100
- IC50 (neutralisation, TZM.bl cells) [26]: 0.056 µg/mL
- IC80 (neutralisation, TZM.bl cells) [26]: 0.192 µg/mL
- MPI [26]: 100
- IC50 [27]: 0.027 µg/mL
- IC80 [27]: 0.128 µg/mL
- MPI [27]: 100
- IC50 [28]: 0.12 µg/mL
- IC80 [28]: 0.431 µg/mL
- MPI [28]: 100
- IC50 [29]: 0.086 µg/mL
- IC80 [29]: 0.567 µg/mL
- MPI [29]: 100
- IC50 (neutralisation, TZM.bl cells) [30]: 0.321 µg/mL
- IC80 (neutralisation, TZM.bl cells) [30]: 1.46 µg/mL
- MPI [30]: 100
- IC50 [31]: 3.76 µg/mL
- IC80 [31]: 15.7 µg/mL
- MPI [31]: 93
- IC50 [32]: 0.028 µg/mL
- IC80 [32]: 0.15 µg/mL
- MPI [32]: 100
- IC50 [33]: 0.038 µg/mL
- IC80 [33]: 0.176 µg/mL
- MPI [33]: 100
- IC50 [34]: 0.055 µg/mL
- IC80 [34]: 0.208 µg/mL
- MPI [34]: 100
- IC50 (neutralisation, TZM.bl cells) [35]: 17.9 µg/mL
- IC80 (neutralisation, TZM.bl cells) [35]: > 50 µg/mL
- MPI [35]: 65
- IC50 [36]: 0.144 µg/mL
- IC80 [36]: 0.539 µg/mL
- MPI [36]: 100
- IC50 [37]: 0.066 µg/mL
- IC80 [37]: 0.228 µg/mL
- MPI [37]: 100
- IC50 [38]: 0.224 µg/mL
- IC80 [38]: 0.715 µg/mL
- MPI [38]: 100

Source: US20240117018A1
